Consider two molecules from publication PMC10531710, “Overexpression of the First Peanut-Susceptible Gene, AhS5H1 or AhS5H2, Enhanced Susceptibility to Pst DC3000 in Arabidopsis” (International Journal of Molecular Sciences, 2023).

The test system of series [1] is T1, O=C(O)c1ccccc1O.
T1 construct: full ORF 1014 bp, 338 residues as printed; modified pGEX (GST) vector with C-terminal 3xMyc; E. coli BL21(DE3); glutathione Sepharose purified; tag removal not mentioned
As to the kind of experiment: purified protein. The note with it: 1 mM 2-oxoglutarate, 1 mM ascorbate, 0.4 mM FeSO4, 0.1 mg/mL catalase, 5 mM DTT, 50 mM phosphate pH 6.8, 40 °C, 30 min. In kind it is biochemical, Arachis hypogaea.

Substrate in series [2]: O=C(O)c1ccccc1O
As to the kind of experiment: purified protein. Conditions: 1 mM 2-oxoglutarate, 1 mM ascorbate, 0.4 mM FeSO4, 0.1 mg/mL catalase, 5 mM DTT, 50 mM phosphate pH 6.8, 40 °C, 30 min. It is filed as biochemical, Arachis hypogaea.

By Km is commonly meant the concentration of substrate that gives half-maximal velocity. AhS5H2 (Arachis hypogaea): in series [1], the Km was 190.52 ± 26.33 µM.

B1: AhS5H1 (Arachis hypogaea) (protein)
chain: MANTKPLLLADQVTNMKHIPLNFIRPLNDRPNLQNLQSSNDNNESIPIIDLQGLDEDNDASNRSQIIHNIGQACQDYGFFQIVNHGVPEDVVGKMMKVGKAFFDLPESERMKNYSDDPSKTTRLSTSFNVKTEKVANWRDFLRLHCHPLEDYIQEWPTNPPSFREDVGEYSKHMRKLSLKLLEAISESLGLEKDYMEKALGKHGQHMAINYYPPCPEPDLTYGLPAHADPNAITILLQNHVPGLQVLKDGHWVTVKHVPNTFIVNIGDQIQVISNDKYKSVLHRALVNCEKERMSIPTFYCPSPEALVGPAPQLIDQHNDPPKYTNFTYAEYYHKFWNRGLSKETCVDLFKV
notes: full ORF 1059 bp, 353 residues as printed; modified pGEX (GST) vector with C-terminal 3xMyc; E. coli BL21(DE3); glutathione Sepharose purified; tag removal not mentioned
In the case of B1, in series [2], the Km is listed as 44.72 ± 6.95 µM.
